Laboratory results as given in the supplement of paper PMC6379048.

Experiments:
Assay in all cases: EC50 of free RNA motif oligo competing protein binding to immobilised probe
ZCCHC11 = ZCCHC11 (UniProt Q5TAX3)
Summary of the method: (§1)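 Free RNA oligos (0 nM to 30 μM) competed for 1 h at 4°C in HEK293-FT lysate (2.5 mg protein/well) before a 30 min, 4°C pulldown with the same oligos on NHS-Sepharose beads. Bound proteins were quantified by label-free LC-MS/MS and normalised to the control. Kd was found by multiplying EC50, from a four-parameter log-logistic fit, by a protein-dependent depletion factor.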

ZFP36L1 = target: T1, ZFP36L1 (UniProt Q07352)
T1 sequence: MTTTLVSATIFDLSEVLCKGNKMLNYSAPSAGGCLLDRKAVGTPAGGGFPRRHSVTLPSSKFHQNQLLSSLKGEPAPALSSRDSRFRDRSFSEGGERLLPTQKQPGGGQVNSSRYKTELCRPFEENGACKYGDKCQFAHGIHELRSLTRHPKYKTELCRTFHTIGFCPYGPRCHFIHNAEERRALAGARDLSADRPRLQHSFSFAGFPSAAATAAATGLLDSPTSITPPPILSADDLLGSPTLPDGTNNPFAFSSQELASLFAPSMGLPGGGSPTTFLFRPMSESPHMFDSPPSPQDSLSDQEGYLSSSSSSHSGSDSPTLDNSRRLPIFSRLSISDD
Summary of the method: as §1

FASTKD2 = target: T2, FASTKD2 (UniProt Q9NYY8)
T2 sequence: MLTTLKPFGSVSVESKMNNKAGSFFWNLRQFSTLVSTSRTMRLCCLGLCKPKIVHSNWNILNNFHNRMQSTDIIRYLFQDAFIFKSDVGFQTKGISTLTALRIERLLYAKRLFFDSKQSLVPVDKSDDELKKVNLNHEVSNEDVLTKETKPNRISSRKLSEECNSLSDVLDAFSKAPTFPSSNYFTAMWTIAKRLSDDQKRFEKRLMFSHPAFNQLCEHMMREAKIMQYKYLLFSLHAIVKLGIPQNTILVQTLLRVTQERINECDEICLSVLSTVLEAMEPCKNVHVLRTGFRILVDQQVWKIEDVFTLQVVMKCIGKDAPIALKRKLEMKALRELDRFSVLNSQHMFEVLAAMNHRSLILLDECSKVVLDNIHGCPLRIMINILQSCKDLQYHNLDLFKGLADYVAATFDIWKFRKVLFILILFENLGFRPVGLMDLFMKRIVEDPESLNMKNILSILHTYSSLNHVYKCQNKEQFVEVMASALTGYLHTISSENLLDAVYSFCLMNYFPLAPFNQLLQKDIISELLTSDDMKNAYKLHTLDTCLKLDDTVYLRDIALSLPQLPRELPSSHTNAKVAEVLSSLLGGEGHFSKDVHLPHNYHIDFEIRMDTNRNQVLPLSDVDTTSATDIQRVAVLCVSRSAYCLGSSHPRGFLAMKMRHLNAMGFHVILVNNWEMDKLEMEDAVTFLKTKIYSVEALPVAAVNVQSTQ
Summary of the method: as §1

HNRNPK = HNRNPK (UniProt P61978)
Summary of the method: as §1

MRPL13 = MRPL13 (UniProt Q9BYD1)
Summary of the method: as §1

NONO = target: T3, NONO (UniProt Q15233)
T3 sequence: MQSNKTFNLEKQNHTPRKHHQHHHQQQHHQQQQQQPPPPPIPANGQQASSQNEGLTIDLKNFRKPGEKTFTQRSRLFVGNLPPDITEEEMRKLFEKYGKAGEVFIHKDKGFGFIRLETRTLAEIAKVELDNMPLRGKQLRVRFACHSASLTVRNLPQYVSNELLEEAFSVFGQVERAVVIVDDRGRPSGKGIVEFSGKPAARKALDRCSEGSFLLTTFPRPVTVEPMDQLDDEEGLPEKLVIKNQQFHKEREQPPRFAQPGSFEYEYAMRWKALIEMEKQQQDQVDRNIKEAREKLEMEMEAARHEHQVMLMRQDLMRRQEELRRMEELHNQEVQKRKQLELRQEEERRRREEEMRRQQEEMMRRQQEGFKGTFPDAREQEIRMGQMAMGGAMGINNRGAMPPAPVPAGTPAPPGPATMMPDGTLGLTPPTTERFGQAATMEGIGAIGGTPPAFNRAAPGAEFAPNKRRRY
Summary of the method: as §1

SRSF10 = SRSF10 (UniProt O75494)
Summary of the method: as §1

RBM47 = target: T4, RBM47 (UniProt A0AV96)
T4 sequence: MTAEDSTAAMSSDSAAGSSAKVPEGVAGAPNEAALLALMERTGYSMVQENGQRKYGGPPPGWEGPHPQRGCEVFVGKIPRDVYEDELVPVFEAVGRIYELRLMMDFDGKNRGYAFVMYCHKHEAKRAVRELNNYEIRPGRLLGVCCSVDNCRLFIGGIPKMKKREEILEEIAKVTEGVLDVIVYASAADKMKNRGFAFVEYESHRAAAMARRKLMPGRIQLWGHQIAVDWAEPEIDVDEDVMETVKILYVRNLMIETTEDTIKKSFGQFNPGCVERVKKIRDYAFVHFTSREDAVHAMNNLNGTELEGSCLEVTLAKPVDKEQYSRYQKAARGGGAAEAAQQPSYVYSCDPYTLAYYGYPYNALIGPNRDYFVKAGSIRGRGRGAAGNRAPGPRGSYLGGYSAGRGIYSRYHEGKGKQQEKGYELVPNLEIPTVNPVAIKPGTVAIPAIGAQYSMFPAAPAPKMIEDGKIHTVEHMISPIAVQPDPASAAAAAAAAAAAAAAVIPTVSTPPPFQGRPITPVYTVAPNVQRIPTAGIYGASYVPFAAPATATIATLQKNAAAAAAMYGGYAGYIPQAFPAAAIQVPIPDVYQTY
Summary of the method: as §1

Sequence of ZCCHC11 (Q5TAX3 whole entry): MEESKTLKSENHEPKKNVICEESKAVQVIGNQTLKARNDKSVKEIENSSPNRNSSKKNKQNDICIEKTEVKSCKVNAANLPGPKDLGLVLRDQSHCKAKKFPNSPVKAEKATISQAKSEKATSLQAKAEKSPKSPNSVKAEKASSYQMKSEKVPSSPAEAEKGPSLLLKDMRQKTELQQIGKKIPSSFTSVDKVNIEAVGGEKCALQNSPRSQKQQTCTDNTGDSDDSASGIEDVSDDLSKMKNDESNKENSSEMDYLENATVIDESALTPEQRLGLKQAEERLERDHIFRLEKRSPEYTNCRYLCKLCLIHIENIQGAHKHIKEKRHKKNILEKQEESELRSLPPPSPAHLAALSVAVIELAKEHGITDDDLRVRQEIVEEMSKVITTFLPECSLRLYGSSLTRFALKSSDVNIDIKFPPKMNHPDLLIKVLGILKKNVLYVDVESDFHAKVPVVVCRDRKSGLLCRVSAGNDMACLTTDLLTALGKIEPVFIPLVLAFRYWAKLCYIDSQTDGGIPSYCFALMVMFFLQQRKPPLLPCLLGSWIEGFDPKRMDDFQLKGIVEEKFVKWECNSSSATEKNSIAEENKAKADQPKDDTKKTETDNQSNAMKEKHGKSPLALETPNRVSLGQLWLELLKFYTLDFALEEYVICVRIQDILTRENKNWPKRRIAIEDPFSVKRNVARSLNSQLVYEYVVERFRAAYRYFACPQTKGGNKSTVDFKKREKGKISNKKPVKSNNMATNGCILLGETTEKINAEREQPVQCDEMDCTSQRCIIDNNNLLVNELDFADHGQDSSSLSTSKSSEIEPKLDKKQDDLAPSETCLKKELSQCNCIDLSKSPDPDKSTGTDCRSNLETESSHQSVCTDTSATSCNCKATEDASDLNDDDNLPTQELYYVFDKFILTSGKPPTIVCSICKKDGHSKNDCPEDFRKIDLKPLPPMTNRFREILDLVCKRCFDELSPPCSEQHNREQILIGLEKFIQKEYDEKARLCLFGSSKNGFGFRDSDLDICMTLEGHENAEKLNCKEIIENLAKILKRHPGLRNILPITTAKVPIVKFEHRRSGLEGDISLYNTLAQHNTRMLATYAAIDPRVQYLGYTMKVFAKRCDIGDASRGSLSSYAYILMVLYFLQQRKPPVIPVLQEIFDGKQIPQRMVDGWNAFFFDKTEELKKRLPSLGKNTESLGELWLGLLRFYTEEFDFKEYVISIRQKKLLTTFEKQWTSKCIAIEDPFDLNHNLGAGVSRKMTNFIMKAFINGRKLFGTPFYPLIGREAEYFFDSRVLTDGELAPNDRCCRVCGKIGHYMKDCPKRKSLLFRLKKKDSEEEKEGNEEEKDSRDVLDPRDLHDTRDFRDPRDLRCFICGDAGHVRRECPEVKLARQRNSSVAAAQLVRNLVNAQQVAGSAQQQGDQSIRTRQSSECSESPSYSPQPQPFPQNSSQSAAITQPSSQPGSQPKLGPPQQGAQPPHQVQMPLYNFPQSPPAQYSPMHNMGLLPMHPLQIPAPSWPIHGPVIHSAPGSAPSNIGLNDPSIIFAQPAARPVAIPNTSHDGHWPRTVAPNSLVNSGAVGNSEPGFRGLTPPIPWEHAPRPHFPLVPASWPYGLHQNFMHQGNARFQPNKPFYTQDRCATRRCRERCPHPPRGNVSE
Sequence of SRSF10 (O75494 whole entry): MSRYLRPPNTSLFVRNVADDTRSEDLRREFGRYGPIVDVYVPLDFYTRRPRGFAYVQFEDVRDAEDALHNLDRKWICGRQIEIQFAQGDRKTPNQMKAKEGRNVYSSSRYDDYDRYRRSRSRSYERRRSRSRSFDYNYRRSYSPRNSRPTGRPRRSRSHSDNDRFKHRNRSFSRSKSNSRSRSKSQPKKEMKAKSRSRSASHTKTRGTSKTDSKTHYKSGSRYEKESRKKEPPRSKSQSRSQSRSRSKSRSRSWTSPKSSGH

In the case of UAUUUAU, the EC50 (ZCCHC11) is reported as 108 nM, the EC50 (ZFP36L1) is reported as 73.9 nM and the EC50 (FASTKD2) is reported as 7860 nM.

Work on CUGUCCU yielded an EC50 (HNRNPK) of 3040 nM and an EC50 (MRPL13) of 194 nM.

In the case of AAUAAA, the EC50 (NONO) is reported as 0.302 nM, the EC50 (SRSF10) is reported as 1150 nM and the EC50 (RBM47) is reported as 3730 nM.
